Assay results: the FLAb antibody collection

B1: unnamed (protein)
chain 1: EVQMVQSGAEVKKPGEPLKISCKGSGYKFGTHWIGWVRQRPGKGLEWMGIIHPADSETKYSPSFQGQVSFSADKSSNTAYLHWSTLRASDTAMYYCARRSGSSSWYALDFWGQGTMVTVSS
chain 2: QSVLTQSPSASGTPGQRVTISCSGGSSNIGSNTVNWYQQFPGAAPKLLIYTNNQRPSGVPDRFSGSKSGTSASLAISGLQSEDEADYYCATWDDSLNGLYVFGTGTKVTVL
B2: unnamed (protein)
chain 1: EVQLVQSGAEVKKPGESLKISCKGSGYSFTTYWLGWVRQMPGKGLDWIGIMSPVDSDIRYSPSFQGQVTMSVDKSITTAYLQWNSLKASDTAMYYCARRRPGQGYFDFWGQGTLVTVSS
chain 2: DIQMTQSPSSLSASVGDRVTITCRASQGISSWLAWYQQKPEKAPKSLIYAASSLQSGVPSRFSGSGSGTDFTLTISSLQPEDFATYYCQQYNIYPYTFGQGTKLEIK
B3: unnamed (protein)
chain 1: QVKLQESGAELARPGASVKLSCKASGYTFTNYWMQWVKQRPGQGLDWIGAIYPGDGNTRYTHKFKGKATLTADKSSSTAYMQLSSLASEDSGVYYCARGEGNYAWFAYWGQGTTVTVSS
chain 2: DIELTQSPASLSASVGETVTITCQASENIYSYLAWHQQKQGKSPQLLVYNAKTLAGGVSSRFSGSGSGTHFSLKIKSLQPEDFGIYYCQHHYGILPTFGGGTKLEIK
B4: unnamed (protein)
chain 1: QGQLVQSGAEVKKPGASVKVSCKASGYTFTDYEMHWVRQAPIHGLEWIGVIESETGGTAYNQKFKGRVTITADKSTSTAYMELSSLRSEDTAVYYCAREGITTVATTYYWYFDVWGQGTTVTVSS
chain 2: DVVMTQSPLSLPVTLGQPASISCRSSQSIVHSNGNTYLEWYLQKPGQSPQLLIYKVSNRFSGVPDRFSGSGSGTDFTLKISRVEAEDVGVYYCFQGSHVPLTFGQGTKLEIK
B5: unnamed (protein)
chain 1: QVQLVQSGAEVKKPGASVKVSCKASGYTFTNYGLSWVRQAPGQGLEWMGWISANNGDTNYGQEFQGRVTMTTDTSTSTAYMELRSLRSDDTAVYYCARDSSSSWARWFFDLWGRGTLVTVSS
chain 2: SYVLTQPPSVSVAPGKTARITCGGNIIGSKLVHWYQQKPGQAPVLVIYDDGDRPSGIPERFSGSNSGNTATLTISRVEAGDEADYYCQVWDTGSDPVVFGGGTKLTVL
B6: unnamed (protein)
chain 1: QAYLQQSGAELVRPGASVKMSCKASGYTFTSYNMHWVKQTPRQGLEWIGAIYPGNGDTSYNQKFKGKATLTVDKSSSTAYMQLSSLTSEDSAVYFCARVVYYSNSYWYFDVWGTGTTVTVSG
chain 2: QIVLSQSPAILSASPGEKVTMTCRASSSVSYMHWYQQKPGSSPKPWIYAPSNLASGVPARFSGSGSGTSYSLTISRVEAEDAATYYCQQWSFNPPTFGAGTKLELK
B7: unnamed (protein)
chain 1: QAYLQQSGAELVRPGASVKMSCKASGYTFTSYNMHWVKQTPRQGLEWIGGIYPGNGDTSYNQKFKGKATLTVGKSSSTAYMQLSSLTSEDSAVYFCARYDYNYAMDYWGQGTSVTVSS
chain 2: QIVLSQSPAILSASPGEKVTMTCRASSSVSYMHWYQQKPGSSPKPWIYATSNLASGVPARFSGSGSGTSYSFTISRVEAEDAATYYCQQWTFNPPTFGGGTRLEIK
B8: unnamed (protein)
chain 1: QVQLQQSGAEVKKPGSSVRVSCKASGGTFNNNAINWVRQAPGQGLEWMGGIIPMFGTAKYSQNFQGRVAITADESTGTASMELSSLRSEDTAVYYCARSRDLLLFPHHALSPWGRGTMVTVSS
chain 2: SSELTQDPAVSVALGQTVRVTCQGDSLRSYYASWYQQKPGQAPVLVIYGKNNRPSGIPDRFSGSSSGNTASLTITGAQAEDEADYYCSSRDSSGNHWVFGGGTELTVL
B9: unnamed (protein)
chain 1: QVQLVESGGGLVKPGGSLRLSCAASGFTFSDYYMNWIRQAPGKGLEWVSYISSSGSIIYYADSVKGRFTISRDNAKNSLYLQMNSLRAEDTAVYYCAREGRIAARGMDVWGQGTTVTVSS
chain 2: DIQMTQSPSSLSASVGDRVSITCRPSQSFSRYINWYQQKPGKAPKLLIHAASSLVGGVPSRFSGSGSGTDFTLTISSLQPEDFATYYCQQTYSNPPITFGQGTRLEMK
B10: unnamed (protein)
chain 1: QVQLQESGPGLVRPSQTLSLTCTVSGYSITSDHAWSWVRQPPGRGLEWIGYISYSGITTYNPSLKSRVTMLRDTSKNQFSLRLSSVTAADTAVYYCARSLARTTAMDYWGQGSLVTVSS
chain 2: DIQMTQSPSSLSASVGDRVTITCRASQDISSYLNWYQQKPGKAPKLLIYYTSRLHSGVPSRFSGSGSGTDFTFTISSLQPEDIATYYCQQGNTLPYTFGQGTKVEIK

Experiment: patients with anti-drug antibodies; higher = more immunogenic

Protein | patients with anti-drug antibodies [%]
B1 | 2.1
B2 | 4
B3 | 68.1
B4 | 1
B5 | 0.5
B6 | 45.5
B7 | 0
B8 | 2.4
B9 | 2.9
B10 | 2
